Results as given in paper PMC314469, “Protein Interaction Networks by Proteome Peptide Scanning” (PLoS Biology, 2004).

T1: amphyphisin SH3 (AMPH_HUMAN), P49418
T1 chain: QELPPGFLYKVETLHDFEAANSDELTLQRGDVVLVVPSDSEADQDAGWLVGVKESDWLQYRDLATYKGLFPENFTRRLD


How the values were obtained:
[1] = target: T1, amphyphisin SH3 (AMPH_HUMAN), P49418; test: SPOT array
[2] = target: endophilin SH3 (SH3G2_HUMAN), Q99962; test: SPOT array

normalised SPOT signal, Boehringer light units (BLU); mean over the file's lines of this peptide [1] | normalised SPOT signal, Boehringer light units (BLU); mean over the file's lines of this peptide [2] | Binder
35.9 | 59.1 | LRRLLKRPELEEIF [Q96FL6 71-84]
5300 | 208 | LREDFVRPLREGIL [Q9P2E3 383-396]
22.4 | 27 | LSGGLKRPSTRTPN [Q9BQL3 78-91]
120 | 106 | LSNSLTRPQKLSPV [O60673 804-817]
3450 | 412 | LRRHPSRPMRQSRR [Q9NYU0 896-909]
259 | 102 | LRWGFSRPRKDKGL [Q9P2P9 1564-1577]
371 | 329 | LQPRPRRPREAADT [Q96LS1 115-128]
170 | 184 | LQSDPPRPHRILQA [Q06481 479-492]
2180 | 220 | LQKQPRRPRRWVTV [O95125 124-137]
2420 | 4830 | LRPVPRRPSTWSRR [Q9NWJ0 49-62]
23.4 | 121 | LSFHPKRPWILTSL [P53621 15-28]
41.9 | 194 | LQRQLKRPRPVILD [Q9H3P5 284-297]
30 | 38.6 | LSLLLKRPWDPAVG [Q9NWE5 158-171]
28.9 | 41.8 | LQRRLKRPETPTHD [Q9NVU6 531-544]
1690 | 489 | LRQPLRRPFRPNGL [Q16753 167-180]
38 | 62.4 | LQLGPSRPPTGEAL [Q9NXY3 388-402]

normalised SPOT signal, Boehringer light units (BLU); mean over the file's lines of this peptide [1] | normalised SPOT signal, Boehringer light units (BLU); mean over the file's lines of this peptide [2] | Binder
66.4 | 32.5 | LRPVPGKPPGVDPL [Q04727 335-349]
21.1 | 67.5 | LSKWLKRPGALEKQ [Q96S42 159-172]
5160 | 7160 | LRAMPSRPPRLLAT [Q9UNU2 285-298]
64.9 | 95.7 | LSDFPKKPPQPELG [Q96QH2 325-339]
37.1 | 121 | LSADPERPGRFRLE [Q9H0F6 46-59]
7210 | 16200 | LRPPPMRPVRPVVQ [O43295 603-616]
412 | 222 | LQPRPRRPREAPDT [Q15653 147-160]
37.9 | 97.1 | LRATLKRPEVIATS [Q96JV6 461-474]
35.8 | 50.6 | LRGKFKRPPLRRVR [P48788 102-115]
1320 | 14500 | APQPPPRPPSPRYE [Q9Y566 1372-1386]
91.3 | 6220 | LRKRPLKPPAKKIM [O14789 574-588]
339 | 2810 | APQSPRRPPHPLPP [P12270 2055-2069]
92.3 | 257 | APRAPRRPRSPPSS [P27815 35-48]
341 | 944 | LSERPPRPPPPPPP [Q96Q04 431-445]
23.3 | 38 | LRGKFKRPTLRRVR [P19429 134-147]
